In publication PMC12872393, “NCOA4 initiates ferritinophagy by avidly binding GATE16 using two short linear interaction motifs” (Life Science Alliance, 2026):

Target: (GST-GATE16)2 (UniProt P60520)
Experiment: SEC-MALS; 100 μl of 1 mg/ml protein on a WTC-030 column; 20 mM Tris, 150 mM NaCl, pH 7.5; 0.5 ml/min

## (GST-GATE16)2 (from UniProt P60520 1-117) (natural protein)
  stoichiometry N: 2
